From patent US20150351390A1, “COMPOSITIONS AND METHODS FOR AUXIN-ANALOG CONJUGATION” (PIONEER HI-BRED INTERNATIONAL, INC., priority 2012, published 2015)

How the values were obtained:
[1] = LC-MS assay of GH3 conjugation of 2,4-D with Asp or Glu; type: biochemical; conditions: for kcat (hrs−1) 2,4-D-Asp: conjugation of 2,4-D with Asp by recombinant GH3 protein, 2,4-D-Asp product by LC-MS; for kcat (hrs−1) 2,4-D-Asp / kcat (hrs−1) 2,4-D-Glu: 5 mM 2,4-D substrate; for kcat (hrs−1) 2,4-D-Glu: conjugation of 2,4-D with Glu by recombinant GH3 protein, 2,4-D-Glu product by LC-MS; for 2,4-D conjugation activity with Asp or Glu: result in words
How it was run: (§1)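 N-His-tagged GH3 homologs expressed in E. coli C41(DE3) and Ni-NTA purified (44 to 164 μg/mL) were incubated 3 hours at 30° C. in 20 mM Tris-HCl pH 8.0, 5 mM MgCl2, 1 mM DTT with 5 mM each of auxin, ATP and Asp or Glu. Conjugates were quantified by LC-MS against standards.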

[2] = LC-MS assay of GH3 conjugation of IAA with Asp or Glu; type: biochemical; conditions: for kcat (hrs−1) IAA-Asp: conjugation of IAA with Asp by recombinant GH3 protein, IAA-Asp product by LC-MS; for kcat (hrs−1) IAA-Glu: conjugation of IAA with Glu by recombinant GH3 protein, IAA-Glu product by LC-MS; for IAA conjugation activity with Asp or Glu: result in words
How it was run: as §1

B1: AtGH3-13: GH3 protein, accession CAB86642 (protein, listed as Arabidopsis thaliana)
chain: MLPKFDLTDPKASLSLLEDVTTNVTQIQDSILEAVLSRNAHTEYLKGFLNGQVDKQTFKKNVPIVTYEDIKPYINRIANGEASDLICDRPISLLVMSSGTTAGIQNLIPLTTEDGEQRIMFGSLYRSLLYKYVEGIREGKSLTFYFVNPERETASGILIRTMITCILKSVNKTNSSLWDRLQISPHEISTCEDTTQSMYCQLLCGLLQRDNVARLGAPFASVFIRVIKYLEGHWQELCSNIRTGRLSDWITDPQCVSGISKFLTAPNPDLASLIEQECSKTSWEAIVKRLWPKAKCVEAVVTGSMAQYIPLLEFYGGGLPLISSWYGSSECFMGVNVNPLCKPSDVSYTIIPSMAYFEFLEVKKDQQEAGLDPIENHVVVDLVDVKIGHDYEPVVTTFSGLYRYRVGDLLRVTGFYNNSPHFRFVGRQKVVLSLHMANTYEEDLLKAVTNAKLLLEPHDLMLMEFTSRVDSSSFVGHYVLYWELGSKVKDAKLEPNRDVMEECCFTVEKYLDPLYRQERRKDKNIGPLEIKVVKPGAFDELMNFFLSRGSSVSQYKTPRSVKTEEAVKILEANVVSEFLSQETPPWG
- kcat (hrs−1) 2,4-D-Asp [1]: 0.000 h⁻¹
- kcat (hrs−1) 2,4-D-Glu [1]: 0.018 h⁻¹
- 2,4-D conjugation activity with Asp or Glu [1]: 2,4-D conjugases
- kcat (hrs−1) IAA-Asp [2]: 0.000 h⁻¹
- kcat (hrs−1) IAA-Glu [2]: 0.000 h⁻¹
- IAA conjugation activity with Asp or Glu [2]: IAA-inactive

B2: OsGH3-11: GH3 protein, accession P0C0M3 (protein, listed as Oryza sativa)
chain: MDDHNLDYKGSGALEELEMLTVNAKEAQELILTKILERNQATEYLSKFMNGSTNISAFKRHVPVVTYDKVHPYILRIATGEESSILCGEYILELLRSSGTSRGEPRLMPSILKDLDRRTYLYSLIMPIMNKYISGLGEGKAMYLLFVKAETLTDSGIPVRSVLTSYYKSPHFLHRKHDLYNNYTSPDEVILCPDSQQSMYCQLLCGLVERQHVLRIGAVFASAFLRSISFLEQHWRDLVNDIRIGQLNSSITSPACRLAMLNFLALPNPELADQVEAICSCGSWKGILGRLWPNVKYIEAVLTGTMAQYIPMLEFYGGGAIPFVCTMYASSESYFGVNLSPLCSPADVSYTILPNMAYFEFIPLEDGLRLTDHEEVIENDKLVSLVDVKVGCYYELVVTTFSGLYRYRVGDVLQVTGFYNRAPQFKFICRRNVILSIDSDKTNEEDLHNSVTTAKKILENQNYLLLEYTSYTDISTVPGHYVLFWEIKSTHDERPAPLDAQLLESCCAAVEESLDYVYRRCRAHDRSIGPLEIRLVEAGAFDALMDLLVSHGSSINQYKTPRCIESSLALKLLNSKVIACFFSPQDPECGM
- kcat (hrs−1) 2,4-D-Asp [1]: 0.000 h⁻¹
- kcat (hrs−1) 2,4-D-Glu [1]: 0.043 h⁻¹
- 2,4-D conjugation activity with Asp or Glu [1]: 2,4-D conjugases
- kcat (hrs−1) IAA-Asp [2]: 0.000 h⁻¹
- kcat (hrs−1) IAA-Glu [2]: 0.000 h⁻¹
- IAA conjugation activity with Asp or Glu [2]: IAA-inactive

B3: PtGH3-14: GH3 protein, accession EEE99364 (protein, listed as Populus trichocarpa)
chain: MTYDELDRNLEDLTKNAAHHQLQTLHSILQHQASVGYLQPYLSACHAPVDAATFRSQVPLSSYDDYFHLINQLANGDIDHHQPLLSADPLLCFFYSSGTSTMKPKLIPYFDSALSKAASYNAHQGSAAIFRNLVPPRPEVNKILWFLYADDAPTTRGGFKVMAASTYPLQGNKSRSNWSQTLSCISPREVVFGSNIKQQMYCHLLCALRSFDIIDGIRAAYAAGLIRAFSLLESKWEKLCDDLESGFPSLEIGDAAMKESVVEFLGGPQVDLSRRIREICAESNWGGILSKLWPNVRYVKSVTTGSMKQYYSKLKYYAGDVMILGGDYFASECCLGINLDIQQPPESTRFVMLPTTAYFEFLPFDLNESSVVGEETVDFSGVKVGKMYEVAVTTYRGLYRYRLGDIVRVVGFHNSSPLVEFVMRAPKTGYEIITEKDLMSAMESFQHSMAAEVVEFASFSDFELSPKRLKVFIEFREGCDFLQEEKLQGSVEALQRCCSSLENGLGEIYKVQKDRGEIGPLLVSVVRSGSFDGILQMAIKNGAPAGQYKPPKIIRNREIVDFMEESAVLTISLDSFHG
- kcat (hrs−1) 2,4-D-Asp [1]: 0.000 h⁻¹
- kcat (hrs−1) 2,4-D-Glu [1]: 0.015 h⁻¹
- 2,4-D conjugation activity with Asp or Glu [1]: 2,4-D conjugases
- kcat (hrs−1) IAA-Asp [2]: 0.000 h⁻¹
- kcat (hrs−1) IAA-Glu [2]: 0.000 h⁻¹
- IAA conjugation activity with Asp or Glu [2]: IAA-inactive

B4: AtGH3-14: GH3 protein, accession CAB87143 (protein, listed as Arabidopsis thaliana)
chain: MLPKFDPTDQKACLSLLEDVTTNVKQIQDSVLEAILSRNAHTEYLSGFLNGQADKKSFKKNVPVVTYEDIKPYIDRIANGEPSDLICDRPISVLLTSSGTSGGVPKLIPLTTEELEQRISFASLYRPLLYKYIEGIRERKSFMLYFVTRESETASGILVRTMITCVLKSVTPANSFIWDQSQISPHAITTCSDTTQSMYCQLLCGLLQRDNVGRLGAPFASSFLKIIKFLEDHWPEFCSNIRTGCLSDWITDPQCVSGIGKFLTAPNPELASLIEQECSQTSWEAIVKRLWPKAKCIEAIVTGTMAQYNPLLEFYSGGLPVISTFYGSSECFFGLNLNPLSKPNEVSYTIIPCMAYFEFLEVEKDYESGHDPAENPVVVDLVDVKIGHDYEPVVTTFAGLYRYRLGDVLRVTGFYNNAPQFHFVGRQKVVLSIDMDKTYDEDLLKAVTNASLLLEPHDLMLMDFTSRVDSSSYPGHYVLYWELGRKVKDAKLELDQNVLEECCFTIEESLDAVYRKGRKNDKNIGPLEIKVVKPGAFDKLMNFFLSRGSSVSQYKTPRSVTNEEALKILEANVVSEFLSQKTPSWELHELHSSR
- kcat (hrs−1) 2,4-D-Asp [1]: 0.122 h⁻¹
- kcat (hrs−1) 2,4-D-Glu [1]: 0.233 h⁻¹
- 2,4-D conjugation activity with Asp or Glu [1]: 2,4-D conjugases
- kcat (hrs−1) IAA-Asp [2]: 0.000 h⁻¹
- kcat (hrs−1) IAA-Glu [2]: 0.000 h⁻¹
- IAA conjugation activity with Asp or Glu [2]: IAA-inactive

B5: VvGH3-8: GH3 protein, accession XP_002271002 (protein, listed as Vitis vinifera)
chain: MADGEILKKLEDSTKDAVAVQLQTLHTILQRNGRSSYLQRYGASLDTGSFREAVPLSCYDDYADYIDRMADGGGGDDDGDRPLLSVDPLVCFFNSSGTSSMKPKLIPYFDSPPSKAASHIAHQGSVAILRRLFPPRQSINKVLWFLYAGNVTYTKGGFKAMAASAFPLQSNNKNPSPFLSTSASPREVILGSNVEQQMYCHILCGLRNLDFLDGIRAPYAVGLIRAFALLEFKWEQICEDLKCGFPSMEITDIAMRDSVTEVLAGPQLDLSKRIRTICEGKNWGGIVGKLWPNVRYIKCVCTGSMEQYYQKLKYYAGEIPVLGGDYFASECCVGINLDILQPPQLTRFVLLPTAAYFEFLPFTLDEEEIGDDAQETVDFSGVEVGKMYEIVVTTYRGFFRYRLGDVVRVVGFHNTSPEVEFVMRAPKTPAEILTERDLMTAMGNFQLVLRTVKMPDVTEFASFFDLDSIPKQLKIFLEVAGVLQDEKLQELGSVLRRNFSSLEDGLGGVYKLRKGRGEVGPLLVSIVKPGSFNRLLQMATENGAPASQYKPPKIIRNLEIVHFMEGSALLTVSFDSSD
- kcat (hrs−1) 2,4-D-Asp [1]: 0.000 h⁻¹
- kcat (hrs−1) 2,4-D-Glu [1]: 0.028 h⁻¹
- 2,4-D conjugation activity with Asp or Glu [1]: 2,4-D conjugases
- kcat (hrs−1) IAA-Asp [2]: 0.000 h⁻¹
- kcat (hrs−1) IAA-Glu [2]: 0.000 h⁻¹
- IAA conjugation activity with Asp or Glu [2]: IAA-inactive
